Drawing on paper PMC9122904, “Insights into the client protein release mechanism of the ATP-independent chaperone Spy” (Nature Communications, 2022), this text covers kon for one molecule.

What all share (experiment): BLI; Octet RED96; client biotinylated and loaded on streptavidin sensors; Spy or Spy variant in solution at 0.25, 0.5, 1, 1.5 and 2 μM; 40 mM HEPES, 150 mM NaCl, pH 7.5; Kd calculated as koff/kon
Holding throughout (conditions): both partners purified

The target of one test is T1, Spy_(29-130) (UniProt P77754 52-153).
T1 construct: Spy chaperone, residues 29-130; source: E. coli BL21 (DE3), purified (Ni-NTA, cation exchange, SEC); not shown: His6, N-terminal, cleaved; SUMO, N-terminal, cleaved
T1 sequence (looked up): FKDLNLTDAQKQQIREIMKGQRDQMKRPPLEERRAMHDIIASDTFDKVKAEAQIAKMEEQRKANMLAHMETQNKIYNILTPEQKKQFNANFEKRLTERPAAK
In a few lines: (§1)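 Biolayer interferometry used an Octet RED96: client proteins biotinylated with EZ-link NHS-biotin (1:1 molar ratio) were loaded on streptavidin sensors, dipped into 40 mM HEPES, 150 mM NaCl, pH 7.5 containing Spy protein at 0.25, 0.5, 1, 1.5 and 2 μM, then moved to Spy-free buffer. Wavelength-shift association and dissociation curves were fitted in SigmaPlot 12.0, giving observed association rate and koff. kon came from observed rate versus Spy concentration; Kd was koff/kon.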

Another test concerns the target T2, Spy_(29-127) (UniProt P77754 52-150).
T2 construct: Spy chaperone, residues 29-127; source: E. coli BL21 (DE3), purified (Ni-NTA, cation exchange, SEC); not shown: His6, N-terminal, cleaved; SUMO, N-terminal, cleaved
T2 sequence (looked up): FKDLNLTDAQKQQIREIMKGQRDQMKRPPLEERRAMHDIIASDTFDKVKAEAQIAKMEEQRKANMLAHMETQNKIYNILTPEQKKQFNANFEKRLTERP
In a few lines:
as §1

The next test deals with T3, Spy_(27-127) (UniProt P77754 50-150).
T3 construct: Spy chaperone, residues 27-127; source: E. coli BL21 (DE3), purified (Ni-NTA, cation exchange, SEC); not shown: His6, N-terminal, cleaved; SUMO, N-terminal, cleaved
T3 sequence (looked up): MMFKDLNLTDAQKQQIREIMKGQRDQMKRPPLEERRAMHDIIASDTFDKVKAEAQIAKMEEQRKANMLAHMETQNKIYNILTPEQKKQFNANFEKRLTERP
Summed up:
as §1

Another test addresses T4, Spy_(24-130) (UniProt P77754 47-153).
T4 construct: Spy chaperone, residues 24-130; source: E. coli BL21 (DE3), purified (Ni-NTA, cation exchange, SEC); not shown: His6, N-terminal, cleaved; SUMO, N-terminal, cleaved
T4 sequence (looked up): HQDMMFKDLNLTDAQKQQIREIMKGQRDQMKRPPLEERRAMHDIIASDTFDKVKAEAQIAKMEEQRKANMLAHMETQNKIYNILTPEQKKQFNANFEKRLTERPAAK
In a few lines:
as §1

The target in a further test is T5, Spy_(24-127) (UniProt P77754 47-150).
T5 construct: Spy chaperone, residues 24-127; source: E. coli BL21 (DE3), purified (Ni-NTA, cation exchange, SEC); not shown: His6, N-terminal, cleaved; SUMO, N-terminal, cleaved
T5 sequence (looked up): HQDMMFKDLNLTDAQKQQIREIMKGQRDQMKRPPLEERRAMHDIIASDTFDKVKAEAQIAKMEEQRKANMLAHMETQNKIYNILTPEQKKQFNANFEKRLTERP
Summed up: as §1

A further test concerns the target T6, Spy_(24-124) (UniProt P77754 47-147).
T6 construct: source: E. coli BL21 (DE3), purified (Ni-NTA, cation exchange, SEC); not shown: His6, N-terminal, cleaved; SUMO, N-terminal, cleaved
T6 sequence (looked up): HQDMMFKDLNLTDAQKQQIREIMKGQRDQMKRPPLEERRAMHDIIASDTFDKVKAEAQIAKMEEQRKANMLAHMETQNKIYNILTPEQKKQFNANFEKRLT
Summed up:
as §1

The target in test [1] is T7, Spy wild type (Spy_(1-138)) (UniProt P77754 24-161).
T7 construct: Spy, ATP-independent periplasmic chaperone; also called WT; wt; source: E. coli BL21 (DE3), purified (Ni-NTA, cation exchange, SEC); not shown: His6, N-terminal, cleaved; SUMO, N-terminal, cleaved
T7 sequence (looked up): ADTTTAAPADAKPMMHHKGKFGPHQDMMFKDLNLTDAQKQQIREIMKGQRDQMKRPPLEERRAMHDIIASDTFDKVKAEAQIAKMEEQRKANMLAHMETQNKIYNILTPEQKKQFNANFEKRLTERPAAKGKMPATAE
Summed up:
as §1

A further test deals with T8, Spy_(21-124) (UniProt P77754 44-147).
T8 construct: source: E. coli BL21 (DE3), purified (Ni-NTA, cation exchange, SEC); not shown: His6, N-terminal, cleaved; SUMO, N-terminal, cleaved
T8 sequence (looked up): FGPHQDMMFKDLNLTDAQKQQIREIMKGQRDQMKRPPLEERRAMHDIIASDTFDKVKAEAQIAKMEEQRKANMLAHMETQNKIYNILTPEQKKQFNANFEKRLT
In a few lines:
as §1

B1: Im7 H40W L53A I54A (natural protein)
chain: MELKNSISDYTEAEFVQLLKEIEKENVAATDDVLDVLLEWFVKITEHPDGTDAAYYPSDNRDDSPEGIVKEIKEWRAANGKPGFKQG
modifications: biotin (EZ-link NHS-biotin, 1:1 molar ratio of biotin to protein)
notes: Im7 (colicin E7 immunity protein) with H40W L53A I54A; Spy was made with an N-terminal His6-SUMO tag that was cleaved; also called Im7AAW; partially folded client; source: purified by a similar procedure to Spy
B1: the kon with Spy_(29-130) was 283000 M⁻¹ s⁻¹; with Spy_(29-127), 309000 M⁻¹ s⁻¹; with Spy_(27-127), 312000 M⁻¹ s⁻¹; with Spy_(24-130) it was 210000 M⁻¹ s⁻¹; in the test with Spy_(24-127), 227000 M⁻¹ s⁻¹; in the test with Spy_(24-124), 258000 M⁻¹ s⁻¹. The kon in test [1] is 276000 M⁻¹ s⁻¹; with Spy_(21-124) it was 267000 M⁻¹ s⁻¹.

As usually defined, the kon is the rate constant with which the complex forms.
